Assay results as given in patent EP2133098A1 (Maxygen Holdings Ltd, dated 2009).
Numbering of substitutions follows the chain as printed. In names and notes the source's numbering stands.

B1: non-conjugated hG-CSF (Neupogen) (ligand)
chain: TPLGPASSLPQSFLLKCLEQVRKIQGDGAALQEKLCATYKLCHPEELVLLGHSLGIPWAPLSSCPSQALQLAGCLSQLHSGLFLYQGLLQALEGISPELGPTLDTLQLDVADFATTIWQQMEELGMAPALQPTQGAMPAFASAFQRRAGGVLVASHLQSFLEVSYRVLRHLAQP
B2: SPA-PEG 20000-conjugated hG-CSF K16R K34R K40R (ligand)
chain: B1 chain with K16R, K34R, K40R
modifications: SPA-PEG 20000
B3: SPA-PEG 5000-conjugated hG-CSF K16R K34R K40R (ligand)
chain: B1 chain with K16R, K34R, K40R
modifications: SPA-PEG 5000 on the available PEGylation sites
B4: SPA-PEG 12000-conjugated hG-CSF K16R K34R K40R (ligand)
chain: B1 chain with K16R, K34R, K40R
modifications: SPA-PEG 12000; mainly 2 and 3 PEG groups attached
B5: SPA-PEG 5000-conjugated hG-CSF K16R K34R K40R Q90K Q120K T133K (ligand)
chain: B1 chain with K16R, K34R, K40R, Q90K, Q120K, T133K
modifications: SPA-PEG 5000 on the available PEGylation sites
B6: SPA-PEG 5000-conjugated hG-CSF K16R K34R K40R Q70K Q120K T133K (ligand)
chain: B1 chain with K16R, K34R, K40R, Q70K, Q120K, T133K
modifications: SPA-PEG 5000 on the available PEGylation sites
B7: SPA-PEG 5000-conjugated hG-CSF K16R K34R K40R Q70K Q90K Q120K (ligand)
chain: B1 chain with K16R, K34R, K40R, Q70K, Q90K, Q120K
modifications: SPA-PEG 5000 on the available PEGylation sites
B8: SPA-PEG 5000-conjugated hG-CSF K16R K34R K40R Q70K Q90K T105K (ligand)
chain: B1 chain with K16R, K34R, K40R, Q70K, Q90K, T105K
modifications: SPA-PEG 5000 on the available PEGylation sites
B9: SPA-PEG 5000-conjugated hG-CSF K16R K34R K40R Q70K Q120K (ligand)
chain: B1 chain with K16R, K34R, K40R, Q70K, Q120K
modifications: SPA-PEG 5000 on the available PEGylation sites

Each binder was assayed against T1, human G-CSF receptor (human, UniProt Q99062 25-836) (assay: cell-based or functional assay).
T1 sequence (looked up): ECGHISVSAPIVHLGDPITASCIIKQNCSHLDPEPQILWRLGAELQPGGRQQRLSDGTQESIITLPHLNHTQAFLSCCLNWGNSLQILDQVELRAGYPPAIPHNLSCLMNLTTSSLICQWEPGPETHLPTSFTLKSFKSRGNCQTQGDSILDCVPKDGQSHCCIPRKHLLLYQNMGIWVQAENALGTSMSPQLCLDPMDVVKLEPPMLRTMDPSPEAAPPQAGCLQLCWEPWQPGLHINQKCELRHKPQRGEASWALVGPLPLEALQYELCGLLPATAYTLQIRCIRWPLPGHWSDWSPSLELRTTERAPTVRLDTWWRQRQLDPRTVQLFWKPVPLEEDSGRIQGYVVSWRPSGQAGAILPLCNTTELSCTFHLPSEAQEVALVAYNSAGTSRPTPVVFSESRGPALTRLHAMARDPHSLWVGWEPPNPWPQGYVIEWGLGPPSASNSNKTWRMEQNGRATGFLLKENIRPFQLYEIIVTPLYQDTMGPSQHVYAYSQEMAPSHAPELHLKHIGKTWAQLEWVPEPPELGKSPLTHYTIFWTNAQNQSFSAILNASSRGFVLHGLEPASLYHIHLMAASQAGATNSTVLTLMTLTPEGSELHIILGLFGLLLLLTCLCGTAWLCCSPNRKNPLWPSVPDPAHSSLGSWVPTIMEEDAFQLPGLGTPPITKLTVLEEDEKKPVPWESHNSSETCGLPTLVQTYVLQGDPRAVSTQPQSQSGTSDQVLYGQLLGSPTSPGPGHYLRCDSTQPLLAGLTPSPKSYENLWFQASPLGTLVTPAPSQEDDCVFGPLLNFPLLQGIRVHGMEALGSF

B1 was tested, and the “EC50, BaF3/hGCSF-R/pfos-lux luciferase assay” value was 30 pM.

Point of comparison: B2, “in vitro EC50 (% of non-conjugated hG-CSF (Neupogen))” value 1 % of non-conjugated hG-CSF (Neupogen). Against it:
- B3 — higher, 35 % of non-conjugated hG-CSF (Neupogen)
- B4 — higher, 10 % of non-conjugated hG-CSF (Neupogen)

Biological target: T1, human G-CSF receptor
Experiment: cell-based or functional assay
Remark: another data set of the same source

Point of comparison: B6, “EC50 (% of hG-CSF) conjugated to SPA-PEG 5000” value 5 % of hG-CSF. Against it:
- B5 — the same, 5 % of hG-CSF
- B7 — higher, 10 % of hG-CSF
- B8 — lower, 2 % of hG-CSF
- B9 — higher, 15 % of hG-CSF
